± gives the uncertainty stated by the source.
B1: CD2-associated protein, residues 271 to 331; numbered along this chain, Q9Y5K6 (parent)
chain: KEYCRTLFAYEGTNEDELTFKEGEIIHLISKETGEAGWWRGELNGKEGVFPDNFAVQINEL

Variants of: B1
Assay: abundance fitness (aPCA) (normalised: wild type 0, dead -1); higher = more abundant; growth selection in yeast, the domain comes from the species named
Details: Homo sapiens

Abundance fitness: each site, then its substitutions
F8: Y -0.148 ± 0.093, R 0.12 ± 0.044, Q 0.074 ± 0.065, H -0.109 ± 0.081, P -0.432 ± 0.074, K 0.128 ± 0.06, G 0.028 ± 0.059, D -0.311 ± 0.13, W -0.139 ± 0.051, L -0.064 ± 0.039
E15: L -0.208 ± 0.061, R -0.12 ± 0.048, A -0.072 ± 0.073, K -0.268 ± 0.11, F -0.43 ± 0.11, T -0.27 ± 0.09, W -0.343 ± 0.069, H -0.004 ± 0.18, S -0.138 ± 0.07, I -0.281 ± 0.13, Y -0.261 ± 0.16, G -0.107 ± 0.061, N -0.184 ± 0.16, V -0.329 ± 0.11, C -0.123 ± 0.11, M -0.23 ± 0.1, P -0.027 ± 0.082, D 0.027 ± 0.18
E22: D -0.572 ± 0.15, T -0.25 ± 0.091, S -0.119 ± 0.053, C -0.4 ± 0.089, I -0.404 ± 0.16, L -0.732 ± 0.067, Q -0.081 ± 0.086, V -0.171 ± 0.082, W -1.13 ± 0.45, G -0.26 ± 0.089, P -0.061 ± 0.078, K 0.116 ± 0.075, N -0.437 ± 0.088, F -1.02 ± 0.25, R -0.209 ± 0.065, M -0.485 ± 0.087, A -0.072 ± 0.078, Y -0.915 ± 0.31
R5: L -0.383 ± 0.081, T -0.34 ± 0.073, F -0.487 ± 0.083, H -0.461 ± 0.081, W -0.689 ± 0.21, A -0.426 ± 0.15, D -0.764 ± 0.16, S -0.49 ± 0.068, N -0.601 ± 0.085, P -0.978 ± 0.21, Q -0.37 ± 0.33, G -0.868 ± 0.14, K 0.182 ± 0.15, V -0.439 ± 0.066, I -0.527 ± 0.062, E -0.154 ± 0.18
E17: N -0.755 ± 0.2, F -0.53 ± 0.12, K -0.619 ± 0.093, R -0.483 ± 0.048, S -0.259 ± 0.052, I -0.991 ± 0.19, A -0.233 ± 0.083, V -0.497 ± 0.08, M -0.362 ± 0.097, D -0.213 ± 0.13, T -0.428 ± 0.067, H -0.107 ± 0.1, W -0.855 ± 0.083, L -0.744 ± 0.065, Q 0.049 ± 0.071, G -0.58 ± 0.078, C -0.182 ± 0.076, Y -0.463 ± 0.075, P -1.12 ± 0.22
T19: I -0.693 ± 0.093, Y -0.422 ± 0.078, N -0.153 ± 0.058, F -0.592 ± 0.073, Q -0.536 ± 0.21, L -0.814 ± 0.11, K -0.436 ± 0.17, W -0.555 ± 0.19, E -0.696 ± 0.21, V -0.66 ± 0.074, D -0.499 ± 0.1, R -0.283 ± 0.07, H -0.252 ± 0.082, A -0.249 ± 0.08, M -0.598 ± 0.16, G -0.431 ± 0.13, C -0.287 ± 0.064
L7: H -0.674 ± 0.14, F -0.741 ± 0.15, I -0.021 ± 0.1, S -0.107 ± 0.056, V -0.088 ± 0.07, Y -0.762 ± 0.15, K -0.174 ± 0.056, M -0.113 ± 0.077, E -0.457 ± 0.1, A -0.275 ± 0.059, P -1.01 ± 0.15, W -0.539 ± 0.098, T -0.017 ± 0.057, G -0.57 ± 0.11, R -0.276 ± 0.061, C -0.336 ± 0.098, D -0.426 ± 0.14
K21: L -0.203 ± 0.057, E -0.015 ± 0.073, A -0.023 ± 0.057, P -0.242 ± 0.09, I -0.265 ± 0.081, V -0.127 ± 0.048, C -0.16 ± 0.14, G -0.027 ± 0.058, M -0.202 ± 0.06, H -0.107 ± 0.3, F -0.42 ± 0.099, Y -0.37 ± 0.16, W -0.538 ± 0.12, S -0.045 ± 0.063, Q -0.139 ± 0.075, N -0.019 ± 0.14, T -0.076 ± 0.072, R -0.064 ± 0.064
Y10: W -0.209 ± 0.066, H -0.373 ± 0.17, L -0.744 ± 0.14, E -0.592 ± 0.14, F -0.182 ± 0.1, C -0.659 ± 0.14, P -0.79 ± 0.2, K -0.167 ± 0.21, V -0.567 ± 0.16, T -0.864 ± 0.22, G -0.544 ± 0.074, I -0.846 ± 0.48, S -0.598 ± 0.067, N -0.831 ± 0.42, Q -0.439 ± 0.13, A -0.686 ± 0.14
G12: S -0.113 ± 0.055, V -1.1 ± 0.19, F -0.687 ± 0.11, Y -0.759 ± 0.23, P -0.381 ± 0.087, I -0.887 ± 0.23, M -0.786 ± 0.13, E -0.434 ± 0.11, W -0.471 ± 0.11, D -0.794 ± 0.13, N -0.646 ± 0.14, A 0.036 ± 0.055, Q -0.513 ± 0.1, H -0.837 ± 0.16, C -0.329 ± 0.091, K -0.224 ± 0.095, L -0.865 ± 0.089, T -0.425 ± 0.068

Reference: the Human Domainome abundance scans (Beltran et al. 2025)
